Assay: label from the status in PepcDB records
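Further: failed if final PepcDB status was selected cloned or expressed and not failed if soluble or beyond.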

Sequence: MRFKFLRGKLNHPIKCVCDNLSMDNQIMSTELYSQILEVIALVPFGKVATYGQIARLAGLPKHARLVGYTLKNIDQASDIPWHRIINAQGKVSTYHLNQIGENIQLNKLRDEGIVVLNGKINLKKYQWLVSQS
- protein production: failed

Sequence: MQVKENKQLCLISLGCSKNLVDSEVMLGKLYNYTLTNDAKSADVILINTCGFIESAKQESIQTILNAAKDKKEGAILIASGCLSERYKDEIKELIPEVDIFTGVGDYDKIDIMIAKKQNQFSEQVFLSEHYNARIITGSSVHAYVKISEGCNQKCSFCAIPSFKGKLQSRELDSILKEVENLALKGYTDMTFIAQDSSSFLYDKGQKDGLIQLIRAIDKQQALKSARILYLYPSSTTLELIGAIESSPIFQNYFDMPIQHISDSMLKKMRRNSSQAHHLKLLDAMKQVKESFIRSTIIVGHPEENESEFEELSAFLDEFQFDRLNIFAFSAEENTHAYSLEKVPKKTINARIKALNKIALKHQNHSFKALLNKPIKALVENKEGEYFYKARDLRWAPEVDGEILINDSELTTPLKPGHYTIAPSEFKDNILLAKVLSPF
- protein production: failed

Sequence: MLEDLIGKAYLESAEDRRRGDRSEEVEAIRKYIRSARRTVVPNWNAEKVDAINDVLRSFNLREAEHLQFNTNWADLTRMPAVTKALMALDISGADLVIARGRLGVPGSGSLLVIMDSRGRLLSAAMSPPHVIHSMEVREAVRSEMTHALERIGFKR
- protein production: not failed

Sequence: GSHMKEDQVVAEEPGFQDEEESLFQDIDLLQKHGINVADIKKLKSVGICTIKGIQMTTRRALCNVKGLSEAKVDKIKEAANKLIEPGFLTAFEYSEKRKMVFHITTGSQEFDKLLGGGIESMAITEAFGEFRTGKTQLSHTLCVTAQLPGAGGYPGGKIIFIDTENTFRPDRLRDIADRFNVDHDAVLDNVLYARAYTSEHQMELLDYVAAKFHEEAGIFKLLIIDSIMALFRVDFSGRGELAERQQKLAQMLSRLQKISEEYNVAVFVTNQMTADPGATMTFQADPKKPIGGHILAHASTTRISLRKGRGELRIAKIYDSPEMPENEATFAITAGGIGDAKE
- protein production: not failed

Sequence: RTAVMIMNGNQLVGFFCLHVGQGPLSYGETEVNTILLRALSVDDRFKHQRVASDALAELPRYLASHYPMIQTILLAVNHANHVAQHLY
- protein production: failed

Sequence: MDHQLQQLLDLGLEAKCLLVGINGHWGRAPWWSRPQRGRWPGGCGHLPIFQGGPERICRVLLSARGRAAAAMAAVSWPAIRLALSHVANCATAVLPPLAIDRCQAMSRPQRPARRGAEGQVRIVGGRWRNTRLAVPSLTGLRPSSDRVRETLFNWLMPRLPGARVLDLFAGSGALGLEAVSRGAGHATLIERDSSLVQRLRAHVTRLDAATQVQVLQEDAVRWLERAPAALADIVFVDPPFAACLWPAVLERLPAHVAADAWLYLEAPADAPLLPAGWHLHREGATREVRYALYRRAAATLASDPTPVVSV
- protein production: failed

Sequence: MKTRLMEAWKAHRSVMVQMPTGTGKTHLLASVVSEFVSSAGSGVWLIAHRRELVAQMEETLAKYGIRREDTPVRVMSVQWLSRHWNEAGDAPGLIVIDEAHHALAASYTEMWKRYPAAKKLGVTATPCRLNRRGFTELFEVLVTSWSIAEFIEKGVLSVFDYVSIRPGSEERRLIDGLEKRGADGDYQVKEMDAVLNRRPGIERLYRSVRQFASGKKGMVYAISIEHARRIAEYYSRRGVNAVAVDSKTPAMERKRMVEEFRHGKIEVLVNVDVFSEGFDCPDVEFVQLARPTLSLAKYLQQVGRGLRRSEGKEACMLIDNVGLYRIFGLPTQRWNWDAMFRGRMAGKGSLPGRMNCDASVTAFPVVERPAEAGGDLVVVMEHGRLLSSIREQALPDEKEQSPSCRLRAFVDKETGLWGLEKGDEMLPDASFKEVLSIKGRFAVGRLRNGCVRVLDDTGALVAEPGHCREVRFLKDDLLQVRHAGNSVSYVDLRNGRCYSVRPRVLRYGSIELLQANRTYYSRTRQVYANTCGLPSSSIVWMGFYVKMYDGRVPSRCRRMEDGGFCCEPQVCLLEGDEERAYYLSGRLPDQSIVVMDEEGRYYHVEKGHGKRYVACLEHHHHHH
- protein production: failed

Sequence: MGRPRYLAYTRQIAMKSWRKAVVGTQATVGDAIAAIESGSIQIALVLDDQNRLLGVVTDGDVRRGLLRGIPLTGLATDIMNRVPVSAPATLSRDDRLHLMRQKSIKQLPLVDEGGHLVVVETLDELLEPRHYANPVLIMAGGLGERLGALTRDVPKPMLNVGGRPLLETIVRNVVQQGFRNIYISVNYKAETIKDYFADGAAFGANIQYVHETERLGTAGALGLFPAPPDLPMIVTNGDILTTINYGALLDFHNGTPAEATMAVREHKVHVPYGVVSTSDGFLQAIREKPTESWFVSAGIYVIGSSVFGHVAPGVSIDMPTVLERVIAGKGRVAVYPIREYWLDIGRLEDFEQAHAEFHEVFPLEHHHHHH
- protein production: not failed

Source: a protein production outcome set (Wang et al. 2014)
